Molecular target: T1, human Axl extracellular domain conjugated to an IgG Fc domain (human, UniProt P30530 26-451)
T1 construct: extracellular domain; also called hAxl; human Ax1; not shown: IgG Fc domain
T1 sequence (looked up): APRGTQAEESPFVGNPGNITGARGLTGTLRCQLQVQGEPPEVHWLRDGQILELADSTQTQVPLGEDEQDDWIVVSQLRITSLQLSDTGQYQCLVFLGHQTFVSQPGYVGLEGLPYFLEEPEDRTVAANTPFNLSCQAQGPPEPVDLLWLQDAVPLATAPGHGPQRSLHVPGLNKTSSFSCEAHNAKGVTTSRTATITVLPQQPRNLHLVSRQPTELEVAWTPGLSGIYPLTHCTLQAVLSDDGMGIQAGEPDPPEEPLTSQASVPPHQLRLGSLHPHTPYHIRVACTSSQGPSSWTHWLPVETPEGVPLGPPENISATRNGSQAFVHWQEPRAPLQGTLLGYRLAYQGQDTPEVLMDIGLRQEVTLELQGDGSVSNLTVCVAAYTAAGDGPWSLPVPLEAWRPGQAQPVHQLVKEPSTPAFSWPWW
Experiment: competition ELISA: soluble hAxl-Fc (varied) equilibrated with z10, free z10 caught on plate-coated hMER
Protocol: Plates were washed three times with PBS 0.1% Tween and blocked with 3% non-fat dry skim milk in PBS for 2 h.
During the saturation step, dilutions of the antigen hAxl (RnD Systems, 154-AL-100), hTyro3 (RnD Systems, 859-DK-100) or mMER (RnD Systems, 591-MR-100)] were prepared at 50 nM as the highest concentration, and serially diluted 1:1 to 0.098 nM in PBS. […] Then, the saturated plate was washed three times with PBS 0.1% Tween and the antigen-antibody mixture was added to the wells in duplicate and incubated for 1 h at room temperature. The plate was then washed three times with PBS 0.1% Tween and incubated with anti-human Alkaline Phosphatase antibody (Sigma, SAB 3701248) at a dilution of 1:3000 in PBS for 1 h at room temperature. After washing three times with PBS 0.1% Tween, 100 uL of Alkaline Phosphatase Yellow (pNPP) liquid substrate system (Sigma, P7998) was added in each well and incubated for 70 min at room temperature. Plates were read at 405 nm and at 570 nm, to correct plate inconsistencies, using Glomax Discover System from Promega The absorbance was plotted as a function of antigen concentration and the Kd was calculated using GraphPad Prism 7.0c.

B1: z10 antibody (antibody, human IgG1, kappa, V domains shown)
VH: QVQLVQSGAEVKKPGASVKVSCKASGYTFTNYGMNWVRQAPGQGLEWMGWINTYTGEPTYADDFKGRVTFTTDTSTSTAYMELRSLRSDDMAVYYCARKSTVVSRYFDVWGQGTTVTVSS
VL: DIQMTQSPSFLSASVGDRVTITCKASQDVGDAVTWYQQKPGKAPKLLIYWASTRHTGVPDRFSGSGSGTDFTLTISSLQPEDFATYYCQQYRSYPLTFGQGTKLEIKR
notes: also called MERTK (z10) antibody
- binding result: no binding (tested: 50 nM)
